This note sets out measurements from patent US20110177504A1.

The target of this assay is murine LY6C polypeptide on YAMC cells (murine) (UniProt P0CW02). In words: cell-based or functional assay.
Chain of UniProt P0CW02 (P0CW02 27-109 limits assumed): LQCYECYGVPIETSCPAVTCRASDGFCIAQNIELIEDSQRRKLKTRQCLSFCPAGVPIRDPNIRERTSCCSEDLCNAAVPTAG

Turning to “Anti-LY6C (clone HK1.4), Southern Biotech (antibody)”, the CCL2 mRNA, quantitative RT-PCR, YAMC cells on plate-bound antibody 24 h, IFN pre-treatment is 16.1 fold change; the CCL2 mRNA, quantitative RT-PCR, YAMC cells on plate-bound antibody 24 h, Media pre-treatment is 8.81 fold change; the CCL4 mRNA, quantitative RT-PCR, YAMC cells on plate-bound antibody 24 h, IFN pre-treatment turned out to be 16.1 fold change; the CCL4 mRNA, quantitative RT-PCR, YAMC cells on plate-bound antibody 24 h, Media pre-treatment came to 3.15 fold change. For the same substance, the CCL5 mRNA, quantitative RT-PCR, YAMC cells on plate-bound antibody 24 h, IFN pre-treatment was found to be 10.1 fold change; the CCL5 mRNA, quantitative RT-PCR, YAMC cells on plate-bound antibody 24 h, Media pre-treatment was found to be 3.31 fold change; the CCL7 mRNA, quantitative RT-PCR, YAMC cells on plate-bound antibody 24 h, IFN pre-treatment amounted to 5.81 fold change; the CCL7 mRNA, quantitative RT-PCR, YAMC cells on plate-bound antibody 24 h, Media pre-treatment amounted to 3.37 fold change. Besides, the CCL8 mRNA, quantitative RT-PCR, YAMC cells on plate-bound antibody 24 h, IFN pre-treatment turned out to be 110 fold change; the CCL8 mRNA, quantitative RT-PCR, YAMC cells on plate-bound antibody 24 h, Media pre-treatment stood at 12.8 fold change; the CCL25 mRNA, quantitative RT-PCR, YAMC cells on plate-bound antibody 24 h, IFN pre-treatment was determined as 1.46 fold change; the CCL25 mRNA, quantitative RT-PCR, YAMC cells on plate-bound antibody 24 h, Media pre-treatment is 1.16 fold change. For the same substance, the CXCL1 mRNA, quantitative RT-PCR, YAMC cells on plate-bound antibody 24 h, IFN pre-treatment turned out to be 13.4 fold change; the CXCL1 mRNA, quantitative RT-PCR, YAMC cells on plate-bound antibody 24 h, Media pre-treatment is 11.6 fold change; the CXCL2 mRNA, quantitative RT-PCR, YAMC cells on plate-bound antibody 24 h, IFN pre-treatment came to 113 fold change; the CXCL2 mRNA, quantitative RT-PCR, YAMC cells on plate-bound antibody 24 h, Media pre-treatment was found to be 21.8 fold change. The CXCL5 mRNA, quantitative RT-PCR, YAMC cells on plate-bound antibody 24 h, IFN pre-treatment was determined as 151 fold change; the CXCL5 mRNA, quantitative RT-PCR, YAMC cells on plate-bound antibody 24 h, Media pre-treatment was found to be 118 fold change; the CXCL10 mRNA, quantitative RT-PCR, YAMC cells on plate-bound antibody 24 h, IFN pre-treatment came out at 12.2 fold change; the CXCL10 mRNA, quantitative RT-PCR, YAMC cells on plate-bound antibody 24 h, Media pre-treatment stood at 5.11 fold change. The CXCL12 mRNA, quantitative RT-PCR, YAMC cells on plate-bound antibody 24 h, IFN pre-treatment was -3.02 fold change; the CXCL12 mRNA, quantitative RT-PCR, YAMC cells on plate-bound antibody 24 h, Media pre-treatment was -1.99 fold change; the lowest coating concentration of antibody giving detectable CXCL5 secretion, ELISA amounted to 1 µg/mL.
